Test [1] deals with T1, human SIRP-α V1 D1 domain-6His (human, UniProt P78324 31-149).
T1 construct: also called Analyte A
Description: SPR (Biacore 8K), conjugate captured on Protein A chip, His-tagged SIRP-α as analyte, single cycle kinetics; pH 6.0, 25 C. The method, then:
(§1) Binding of the anti-SIRP-α antibody conjugate was measured using a Biacore 8K high throughput, high-sensitivity SPR system (Cytiva, Global Life Sciences Solutions USA LLC, Marlborough, MA) equipped with S-type sensor chips. The interaction of the conjugate with SIRP-α was analyzed by flowing His-tagged SIRP-α over Protein A captured anti-SIRP-α antibody conjugate on a Biacore Series S Protein A Sensor Chip. The anti-SIRP-α antibody portion of the conjugate comprised a heavy chain comprising the sequence of SEQ ID NO:66 and a light chain comprising the sequence of SEQ ID NO:73 conjugated to CpG oligo 7-7 (SEQ ID NO: 35).
(§2) All SIRP-α analytes were injected in single cycle kinetics mode at nominal starting concentrations of 100 nM with 3-fold serial dilutions with the exception of rat SIRP-α. Higher starting concentration of 300 nM was used for assessing binding to rat SIRP-α at pH 7.4. Association times were monitored for 120 s, and dissociation times were monitored 600 s at 30 μL/min flow rate. The surfaces were regenerated with 75 mM phosphoric acid at pH1.65 for two pulses of 15 s at 30 μL/min flow rate. Experiments were done at either 25° C. or 37° C. and at pH 6.0 or 7.4. Assay buffers were 1×PBS 0.01% Tween-20 at pH 6.0 with and 1×HBS-EP+ (10 mM HEPES, pH7.4, 150 mM NaCl, 3 mM EDTA, 0.05% (v/v) Surfactant P20) at pH 7.4. All data points were collected in duplicate or greater.
(§3) The data were processed and analyzed with Biacore 8K Evaluation Software Version 4.0.8.20368 (Cytiva, Global Life Sciences Solutions USA LLC, Marlborough, MA). Reference responses from flow cell 1 were subtracted from the active responses from flow cell 2 to obtain the subtracted data (2-1). The responses from the nearest buffer blank injection were then subtracted from the reference subtracted data (2-1) to yield double-referenced data. These double-reference data were fit to a simple 1:1 Langmuir binding model with mass transport to determine the apparent association (ka) and dissociation rate constants (kd). The apparent equilibrium dissociation constant or affinity constant was then calculated based on their ratio as (KD=kd/ka).
On the technique in general: SPR reads the build-up and loss of mass on a sensor chip optically.

Test [2] concerns the target T2, human SIRP-α V2 D1 domain-6His (human).
T2 construct: also called Analyte B
The test is described as above. Here is the method:
as §1, §2, §3

Test [3] addresses T3, Cyno SIRP-α V4 D1 domain-6His-Avi (cynomolgus, limits assumed).
T3 construct: also called Analyte C
T3 chain: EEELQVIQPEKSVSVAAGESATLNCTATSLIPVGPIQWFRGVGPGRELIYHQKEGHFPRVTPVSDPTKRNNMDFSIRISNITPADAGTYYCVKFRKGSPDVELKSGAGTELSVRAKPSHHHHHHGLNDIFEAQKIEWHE
The test is described as above. Here is the method:
as §1, §2, §3

The target of test [4] is T4, Mouse SIRP-α normal D1 domain-6His (mouse).
T4 construct: also called Analyte D
T4 chain: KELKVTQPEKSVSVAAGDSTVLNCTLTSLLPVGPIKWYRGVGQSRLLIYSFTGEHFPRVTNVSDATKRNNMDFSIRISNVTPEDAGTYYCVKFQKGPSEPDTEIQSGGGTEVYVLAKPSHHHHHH
Described as above. Here is the method: as §1, §2, §3

For test [5], the target named is T5, Rat SIRP-α K32-N373-ECD-6His (rat, UniProt P97710 32-373).
T5 construct: K32-N373 in the name counts on the natural rat protein; also called Analyte E; Rat SIRPα-ECD
T5 sequence: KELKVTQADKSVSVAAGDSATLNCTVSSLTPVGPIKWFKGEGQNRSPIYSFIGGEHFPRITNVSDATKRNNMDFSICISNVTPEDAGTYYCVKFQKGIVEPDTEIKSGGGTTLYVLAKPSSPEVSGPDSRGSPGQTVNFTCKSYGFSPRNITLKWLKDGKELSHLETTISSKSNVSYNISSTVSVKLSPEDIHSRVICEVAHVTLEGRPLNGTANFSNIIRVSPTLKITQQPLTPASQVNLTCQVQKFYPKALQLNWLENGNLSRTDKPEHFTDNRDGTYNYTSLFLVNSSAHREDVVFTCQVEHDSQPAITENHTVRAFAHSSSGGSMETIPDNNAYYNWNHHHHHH
The description is as above. Here is the method:
as §1, §2, §3

For test [6], the target named is T1, human SIRP-α V1 D1 domain-6His. In words: SPR (Biacore 8K), conjugate captured on Protein A chip, His-tagged SIRP-α as analyte, single cycle kinetics; pH 6.0, 37 C. The method, then:
as §1, §2, §3

The target of test [7] is T2, human SIRP-α V2 D1 domain-6His. Described as above. The method, then: as §1, §2, §3
The target in test [8] is T3, Cyno SIRP-α V4 D1 domain-6His-Avi. Described as above. Here is the method: as §1, §2, §3
Test [9] deals with T4, Mouse SIRP-α normal D1 domain-6His. Described as above. Here is the method: as §1, §2, §3
The target of test [10] is T5, Rat SIRP-α K32-N373-ECD-6His. The test is described as above. Here is the method:
as §1, §2, §3

The target in test [11] is T1, human SIRP-α V1 D1 domain-6His. In words: SPR (Biacore 8K), conjugate captured on Protein A chip, His-tagged SIRP-α as analyte, single cycle kinetics; pH 7.4, 25 C. Here is the method:
as §1, §2, §3

Test [12] has as its target T2, human SIRP-α V2 D1 domain-6His. The description is as above. Here is the method: as §1, §2, §3
For test [13], the target named is T3, Cyno SIRP-α V4 D1 domain-6His-Avi. The test is described as above. The method, then: as §1, §2, §3
Test [14] concerns the target T4, Mouse SIRP-α normal D1 domain-6His. The test is described as above. Here is the method: as §1, §2, §3
Test [15] addresses T5, Rat SIRP-α K32-N373-ECD-6His. Described as above. Here is the method: as §1, §2, §3
Test [16] has as its target T1, human SIRP-α V1 D1 domain-6His. In words: SPR (Biacore 8K), conjugate captured on Protein A chip, His-tagged SIRP-α as analyte, single cycle kinetics; pH 7.4, 37 C. Here is the method: as §1, §2, §3
In test [17] the target is T2, human SIRP-α V2 D1 domain-6His. Described as above. Here is the method:
as §1, §2, §3

Test [18] addresses T3, Cyno SIRP-α V4 D1 domain-6His-Avi. The description is as above. Here is the method: as §1, §2, §3
The target of test [19] is T4, Mouse SIRP-α normal D1 domain-6His. The description is as above. Here is the method:
as §1, §2, §3

Test [20] deals with T5, Rat SIRP-α K32-N373-ECD-6His. The description is as above. Here is the method: as §1, §2, §3

One molecule from patent US20240374746A1 (TALLAC THERAPEUTICS, published 2024) can be followed below.

Bounds are passed on as bounds.

T2 sequence (chain, as listed by the source limits assumed): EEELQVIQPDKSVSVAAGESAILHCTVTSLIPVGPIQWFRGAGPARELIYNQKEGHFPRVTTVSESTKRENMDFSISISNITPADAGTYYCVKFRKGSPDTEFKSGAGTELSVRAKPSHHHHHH
T1 sequence (P78324 other isoform, or with tags, fused parts or gaps limits assumed): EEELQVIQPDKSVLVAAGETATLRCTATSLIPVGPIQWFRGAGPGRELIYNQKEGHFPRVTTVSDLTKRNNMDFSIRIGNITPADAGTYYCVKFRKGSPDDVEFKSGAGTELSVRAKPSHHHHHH

B1: anti-SIRP-α antibody-CpG oligonucleotide conjugate (human IgG4 heavy chain SEQ ID NO:66, light chain SEQ ID NO:73, conjugated to CpG oligo 7-7, SEQ ID NO:35) (antibody, V domains shown)
VH: EVQLVESGGGVVQPGGSLRLSCAASGFTFSSNAMSWVRQAPGKGLEWVAGISAGGSDTYYPASVKGRFTISRDNSKNTLYLQMNSLRAEDTAVYYCARETWNHLFDYWGQGTLVTVSS
VL: SYELTQPPSVSVSPGQTARITCSGGSYSSYYYAWYQQKPGQAPVTLIYSDDKRPSNIPERFSGSSSGTTVTLTISGVQAEDEADYYCGGYDQSSYTNPFGGGTKLTVLG
modifications: CpG oligo 7-7 (SEQ ID NO:35) with PEG linker attached by an amide bond to the glutamine of the C-terminal Q-tag RPQGFGPP; the general method pools DAR1 fractions (one CpG per antibody)
notes: The oligonucleotide payload is not a protein; also called anti-SIRP-α antibody conjugate; anti-hIgG4 SIRP-α conjugate
Usually Kd stands for the equilibrium constant for the complex coming apart. Higher therefore signals lower affinity. B1: the Kd in test [1] was < 0.001 nM; in [2], < 0.001 nM; in test [3], 0.05 nM; in test [4], < 0.001 nM; in [5] it was 3.8 nM; in test [6], < 0.001 nM. The Kd in [7] came to 0.01 nM; in test [8], 0.1 nM; in test [9] it was 0.07 nM; in [10] it was 8.5 nM; in [11] it was 0.1 nM; in test [12], 0.23 nM. Moreover, the equilibrium dissociation constant (Kd) in test [13] stood at 0.45 nM; in [14], 0.69 nM; in [15], 61.4 nM; in [16] it was 0.28 nM; in [17] it was 0.51 nM; in test [18] it was 0.71 nM. For the same molecule, the results for the Kd in test [19] and in test [20] were 1.63 nM and 175 nM, respectively.
